The test addresses His-PP1γ (UniProt P36873). Briefly: ITC; peptide (approximately 450 µM, syringe) titrated into PP1γ (~35 µM, cell); 25°C; 50 mM sodium phosphate, 150 mM NaCl, 0.5 mM TCEP, pH 7.5; single-site model. For orientation: In ITC the heat of successive injections is recorded.
Sequence of His-PP1γ (P36873 whole entry): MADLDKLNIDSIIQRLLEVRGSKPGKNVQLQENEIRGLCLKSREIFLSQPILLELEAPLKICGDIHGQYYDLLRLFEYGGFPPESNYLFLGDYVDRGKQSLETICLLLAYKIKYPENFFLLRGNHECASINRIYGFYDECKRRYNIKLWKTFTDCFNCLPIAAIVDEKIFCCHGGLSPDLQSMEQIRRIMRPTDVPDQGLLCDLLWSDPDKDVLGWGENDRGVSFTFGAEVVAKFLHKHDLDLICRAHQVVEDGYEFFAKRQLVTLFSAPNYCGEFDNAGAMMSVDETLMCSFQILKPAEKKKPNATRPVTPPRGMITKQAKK
In general, Kd refers to the concentration at which binding is half-saturated. For the substance Sororin 76-96 pS79 peptide PRR(pS)…, the Kd came to 7.24 µM. This lies in the single-digit micromolar range.
Sororin 76-96 pS83 peptide PRRSPRI(pS)… came in with a dissociation constant Kd of 3.46 µM.
With “KNL1 1441-1455 pS1448 peptide KLNSKRV(pS)FKLPKDQW”, the Kd was found to be 1.73 µM.
As for “Nipp1 197-209 pT202 peptide AKNSRV(pT)FSEDDEIW”, the equilibrium dissociation constant (Kd) was found to be 4.51 µM.

(Values after publication PMC10698503, “Phosphatase specificity principles uncovered by MRBLE:Dephos and global substrate identification” (Molecular Systems Biology, 2023).)
